Changes are numbered by the printed parent chain. Names may count otherwise. Values belong to the binder of their own block, whether it stands above or below them.
Key:
[1] = target: T1, Recombinant Human DLL4 (human, UniProt Q9NR61 27-524); assay: ELISA, DLL4 coated, 100 nM Fab
T1 construct: Bought recombinant protein (R&D Systems Cat#1506-D4/CF), coated on the plate; also called delta-like protein 4; Delta-like 4

[2] = target: T1, Recombinant Human DLL4; assay: ECL 96-well plate binding assay, DLL4 immobilised, 10 nM Fab
[3] = target: T2, Recombinant Human DLL4 (human, UniProt Q9NR61 27-524); assay: ECL (MSD) 96-well plate assay; plate coated with 30 ug/mL DLL4; 0.02 uM Fab
T2 construct: Bought recombinant protein (R&D Systems Cat#1506-D4/CF); also called delta-like protein 4; Delta-like 4

[4] = target: T2, Recombinant Human DLL4; assay: ECL (MSD) 96-well plate assay; plate coated with 15 ug/mL DLL4; 0.004 uM Fab
[5] = target: T3, Recombinant Human DLL4 (delta-like protein 4) (human, UniProt Q9NR61 27-529); assay: ECL (MSD) multispot assay; Fab 0.1 µM
T3 construct: Bought recombinant protein (R&D Systems Cat#1506-D4/CF); also called rHuman DLL4; Delta-like 4

[6] = target: T3, Recombinant Human DLL4 (delta-like …); assay: ECL (MSD) multispot assay; Fab 0.01 µM
[7] = target: T4, Recombinant Human DLL4 (delta-like protein 4) (human, UniProt Q9NR61 27-529); assay: ELISA on coated DLL4, 100 nM Fab
T4 construct: Bought recombinant human DLL4 (R&D Systems Cat#1506-D4/CF), coated on the plate; also called rHuman DLL4; Delta-like 4

[8] = target: T4, Recombinant Human DLL4 (delta-like …); assay: 96-well plate ECL (MSD) binding assay on coated DLL4, 10 nM Fab

ELISA signal [1]: 0.341
ECL signal [2]: 105000
B1: Fab VH1-46_IGHD6-6*01_IGHJ1*01 S102A/S103P/S104F/H111F/I51T/N52L/P53M/S54T/G56H & L6_IGKJ1*01 (Fab, V domains shown)
VH: QVQLVQSGAEVKKPGASVKVSCKASGYTFTSYYMHWVRQAPGQGLEWMGITLMTGHSTSYAQKFQGRVTMTRDTSTSTVYMELSSLRSEDTAVYYCAREEYAPFSAEYFQFWGQGTLVTVSS
VL: not shown
notes: Tested as Fab expressed in E. coli (CH1 with His6/Flag tags from plasmid A; kappa CL from plasmid C); also called APFF TLMTH

ECL signal [3]: 11600
Signal/Noise [3]: 30.5
ECL signal [4]: 5150
Signal/Noise [4]: 35.3
B2: Fab VH1-46_IGHD6-6*01_IGHJ1*01 S103A & L6_IGKJ1*01 (Fab, V domains shown)
VH: B1 VH with T51I, L52N, M53P, T54S, H56G, A102S, P103A, F104S, F111H
VL: not shown
notes: Heavy chain CDR3 alanine mutant of the parent Fab; Fab format with CH1, kappa CL, His6 and Flag tags from the expression plasmids

ECL signal [3]: 163000
Signal/Noise [3]: 431
ECL signal [4]: 3610
Signal/Noise [4]: 24.8
B3: Fab VH1-46_IGHD6-6*01_IGHJ1*01 S104A & L6_IGKJ1*01 (Fab, V domains shown)
VH: B1 VH with T51I, L52N, M53P, T54S, H56G, A102S, P103S, F104A, F111H
VL: not shown
notes: as for B2

ECL signal [5]: 15800
Signal/Noise [5]: 71.6
ECL signal [6]: 2600
Signal/Noise [6]: 10
B4: Fab VH1-46_IGHD6-6*01_IGHJ1*01 S102A & L6_IGKJ1*01 (Fab, V domains shown)
VH: B1 VH with T51I, L52N, M53P, T54S, H56G, P103S, F104S, F111H
VL: not shown
notes: Fab; The VH was cloned into Plasmid A (CH1, His6 and Flag tags) and the kappa VL into Plasmid C (kappa CL); expressed in E. coli

ELISA signal [7]: 1.09
ECL signal [8]: 126000
B5: Fab VH1-46_IGHD6-6*01_IGHJ1*01 S102A/S103P/S104F/H111F/I51N/N52L/S54T/G56H (APFF NLTH) & L6_IGKJ1*01 (Fab, V domains shown)
VH: B1 VH with T51N, M53P
VL: not shown
notes: Fab made in E. coli; CH1 with tags and kappa CL are not included

ELISA signal [1]: 0.035
ECL signal [2]: 91500
B6: Fab VH1-46_IGHD6-6*01_IGHJ1*01 S102A/S103P/S104F/H111F/I51T/N52L/P53V/S54T/G56H & L6_IGKJ1*01 (Fab, V domains shown)
VH: B1 VH with M53V
VL: not shown
notes: Tested as Fab expressed in E. coli (CH1 with His6/Flag tags from plasmid A; kappa CL from plasmid C); also called APFF TLVTH

ELISA signal [1]: 0.018
ECL signal [2]: 103000
B7: Fab VH1-46_IGHD6-6*01_IGHJ1*01 S102A/S103P/S104F/H111F/I51T/N52L/P53G/S54T/G56H & L6_IGKJ1*01 (Fab, V domains shown)
VH: B1 VH with M53G
VL: not shown
notes: Tested as Fab expressed in E. coli (CH1 with His6/Flag tags from plasmid A; kappa CL from plasmid C); also called APFF TLGTH

ELISA signal [1]: 0.33
ECL signal [2]: 163000
B8: Fab VH1-46_IGHD6-6*01_IGHJ1*01 S102A/S103P/S104F/H111F/I51T/N52L/P53A/S54T/G56H & L6_IGKJ1*01 (Fab, V domains shown)
VH: B1 VH with M53A
VL: not shown
notes: Tested as Fab expressed in E. coli (CH1 with His6/Flag tags from plasmid A; kappa CL from plasmid C); also called APFF TLATH

ELISA signal [7]: 0.513
ECL signal [8]: 155000
B9: Fab VH1-46_IGHD6-6*01_IGHJ1*01 S102A/S103P/S104F/H111F/I51Y/N52L/S54T/G56H (APFF YLTH) & L6_IGKJ1*01 (Fab, V domains shown)
VH: B1 VH with T51Y, M53P
VL: not shown
notes: as for B5

ELISA signal [1]: 0.076
ECL signal [2]: 135000
B10: Fab VH1-46_IGHD6-6*01_IGHJ1*01 S102A/S103P/S104F/H111F/I51T/N52L/P53S/S54T/G56H & L6_IGKJ1*01 (Fab, V domains shown)
VH: B1 VH with M53S
VL: not shown
notes: Tested as Fab expressed in E. coli (CH1 with His6/Flag tags from plasmid A; kappa CL from plasmid C); also called APFF TLSTH

ELISA signal [7]: 0.088
ECL signal [8]: 126000
B11: Fab VH1-46_IGHD6-6*01_IGHJ1*01 S102A/S103P/S104F/H111F/I51W/N52L/S54T/G56H (APFF WLTH) & L6_IGKJ1*01 (Fab, V domains shown)
VH: B1 VH with T51W, M53P
VL: not shown
notes: as for B5

ELISA signal [7]: 0.641
ECL signal [8]: 123000
B12: Fab VH1-46_IGHD6-6*01_IGHJ1*01 S102A/S103P/S104F/H111F/I51T/N52L/S54T/G56H (APFF TLTH) & L6_IGKJ1*01 (Fab, V domains shown)
VH: B1 VH with M53P
VL: not shown
notes: as for B5

ELISA signal [1]: 0.07
ECL signal [2]: 63200
B13: Fab VH1-46_IGHD6-6*01_IGHJ1*01 S102A/S103P/S104F/H111F/I51T/N52L/P53R/S54T/G56H & L6_IGKJ1*01 (Fab, V domains shown)
VH: B1 VH with M53R
VL: not shown
notes: Tested as Fab expressed in E. coli (CH1 with His6/Flag tags from plasmid A; kappa CL from plasmid C); also called APFF TLRTH

ECL signal [5]: 7110
Signal/Noise [5]: 31.6
ECL signal [6]: 1190
Signal/Noise [6]: 4.5
B14: Fab VH1-46_IGHD6-6*01_IGHJ1*01 S103A & L6_IGKJ1*01 (Fab, V domains shown)
VH: B1 VH with T51I, L52N, M53P, T54S, H56G, A102S, P103A, F104S, F111H
VL: not shown
notes: as for B4

ELISA signal [7]: 0.995
ECL signal [8]: 167000
B15: Fab VH1-46_IGHD6-6*01_IGHJ1*01 S102A/S103P/S104F/H111F/I51E/N52L/S54T/G56H (APFF ELTH) & L6_IGKJ1*01 (Fab, V domains shown)
VH: B1 VH with T51E, M53P
VL: not shown
notes: as for B5

ECL signal [3]: 1300
Signal/Noise [3]: 3.4
ECL signal [4]: 536
Signal/Noise [4]: 3.7
B16: Fab VH1-46_IGHD6-6*01_IGHJ1*01 E100A & L6_IGKJ1*01 (Fab, V domains shown)
VH: B1 VH with T51I, L52N, M53P, T54S, H56G, E100A, A102S, P103S, F104S, F111H
VL: not shown
notes: as for B2

ECL signal [3]: 11600
Signal/Noise [3]: 30.6
ECL signal [4]: 5020
Signal/Noise [4]: 34.4
B17: Fab VH1-46_IGHD6-6*01_IGHJ1*01 H111A & L6_IGKJ1*01 (Fab, V domains shown)
VH: B1 VH with T51I, L52N, M53P, T54S, H56G, A102S, P103S, F104S, F111A
VL: not shown
notes: as for B2

ELISA signal [1]: 0.021
ECL signal [2]: 114000
B18: Fab VH1-46_IGHD6-6*01_IGHJ1*01 S102A/S103P/S104F/H111F/I51T/N52L/P53N/S54T/G56H & L6_IGKJ1*01 (Fab, V domains shown)
VH: B1 VH with M53N
VL: not shown
notes: Tested as Fab expressed in E. coli (CH1 with His6/Flag tags from plasmid A; kappa CL from plasmid C); also called APFF TLNTH

ECL signal [3]: 19100
Signal/Noise [3]: 50.3
ECL signal [4]: 10300
Signal/Noise [4]: 70.8
B19: Fab VH1-46_IGHD6-6*01_IGHJ1*01 S102A & L6_IGKJ1*01 (Fab, V domains shown)
VH: B1 VH with T51I, L52N, M53P, T54S, H56G, P103S, F104S, F111H
VL: not shown
notes: as for B2

ELISA signal [7]: 0.512
ECL signal [8]: 92400
B20: Fab VH1-46_IGHD6-6*01_IGHJ1*01 S102A/S103P/S104F/H111F/I51R/N52L/S54T/G56H (APFF RLTH) & L6_IGKJ1*01 (Fab, V domains shown)
VH: B1 VH with T51R, M53P
VL: not shown
notes: as for B5
